Paper PMC9467613 (mAbs, 2022)
Where a chain is given by its changes, count along the chain named.

B1: A01 (scFv, V domains shown)
VH: EVQLVESGGGVVQPGRSLRLSCAASGFTFSNKAMNWVRQAPGKGLEWVSAISGSGATTYYADSVKGRFTISRDNSKNTLYLQMNSLRAEDTAVYYCARKRWYGMDVWGQGTTVTVSS
VL: SYELTQPPSVSVAPGKTARITCGGNNIGSKSVHWYQQKPGQAPVLVVYDDSDRPSGIPERFSGSNSGNTATLTISRVEAGDEADYYCQVWDRGMIFGTGTKLTVL
B2: B08 (scFv, V domains shown)
VH: B1 VH with N31D, K32R, G53A, T57S, T58R
VL: B1 VL
B3: B09 (scFv, V domains shown)
VH: B1 VH with F29Y, N31S, K32R, G53S, A56T
VL: B1 VL
B4: B11 (scFv, V domains shown)
VH: B1 VH with S30T, N31S, K32R, T58A
VL: B1 VL
B5: B04 (scFv, V domains shown)
VH: B1 VH with T28S, N31S, K32R, I51V, A56S, T57G
VL: B1 VL with S29L
B6: A09 (scFv, V domains shown)
VH: B1 VH with N31S, K32R, A33S, A56L, T58S
VL: B1 VL
B7: parental antibody against B7-H4, scFv-Fc (scFv, V domains shown)
VH: B1 VH with N31S, K32Y, A33S, A56G, T57S
VL: SYELTQPPSVSVAPGKTARITCGGNNIGSKSVHWYQQKPGQAPVLVVYDDSDRPSGIPERFSGSNSGNTATLTISRVEAGDEADYYCQVWDSRTYVFGTGTKLTVL
B8: B12 (scFv, V domains shown)
VH: B1 VH with N31D, K32R, S54T, T57S
VL: B1 VL
B9: A08 (scFv, V domains shown)
VH: B1 VH with S30G, N31D, K32R, G53S, A56T, T58S
VL: B1 VL
B10: A02 (scFv, V domains shown)
VH: B1 VH with S30T, N31S, K32R, G53Y, S54E, A56R, T58Q
VL: B1 VL
B11: A04 (scFv, V domains shown)
VH: B1 VH with N31S, K32R, A33S, A56D
VL: B1 VL
B12: A12 (scFv, V domains shown)
VH: B1 VH with S30D, K32R, G53S, A56S, T58M
VL: B7 VL
B13: A10 (scFv, V domains shown)
VH: B1 VH with N31S, K32R, A33S, S54T, A56Y
VL: B1 VL
B14: B06 (scFv, V domains shown)
VH: B1 VH
VL: B1 VL with S29V, S31A
B15: A05 (scFv, V domains shown)
VH: B1 VH with F29Y, N31S, K32R, A56S, T57N, T58A
VL: B1 VL
B16: B07 (scFv, V domains shown)
VH: B1 VH with S30G, N31D, K32R
VL: B1 VL
B17: B03 (scFv, V domains shown)
VH: B1 VH with S30G, N31D, K32R, A56S, T57G
VL: B1 VL with S29M
B18: B02 (scFv, V domains shown)
VH: B1 VH with N31S, K32R, A33S, A56S, T58V
VL: B7 VL with S29V, P54S, S55P
B19: A07 (scFv, V domains shown)
VH: B1 VH with N31S, K32R, A33S, A56S, T58V
VL: B7 VL
B20: B10 (scFv, V domains shown)
VH: B1 VH with N31T, K32R, S54T, A56D
VL: B7 VL with D91G, S92R, R93Y, T94Q, Y95M, V96I
B21: A11 (scFv, V domains shown)
VH: B1 VH with N31S, K32R, A33S, A56S, T58V
VL: B1 VL
B22: B7-H4 purified monomeric recombinant human protein (natural protein)
chain: LIIGFGISGRHSITVTTVASAGNIGEDGILSCTFEPDIKLSDIVIQWLKEGVLGLVHEFKEGKDELSEQDEMFRGRTAVFADQVIVGNASLRLKNVQLTDAGTYKCYIITSKGKGNANLEYKTGAFSMPEVNVDYNASSETLRCEAPRWFPQPTVVWASQVDQGANFSEVSNTSFELNSENVTMKVVSVLYNVTINNTYSCMIENDIAKATGDIKVTESEIKRRSHLQLLNSKAS

Assays:
Test in all cases: SPR
[1] = target: B7-H4 purified monomeric recombinant human protein (Homo sapiens, UniProt Q7Z7D3)
A06 = target: A06
B01 = target: B01
B05 = target: B05
G05 = target: G05

Binder	Kd [1] [pM]	koff [1] [s⁻¹]	kon [1] [M⁻¹ s⁻¹]	further results
B1	224	3.7e-05	170000	–
B2	117	1.8e-05	150000	–
B3	118	2.5e-05	210000	–
B4	68	1.2e-05	180000	–
B5	172	2.7e-05	160000	–
B6	74	1.1e-05	160000	–
B7	7430	0.0033	450000	–
B8	84	2.8e-05	340000	–
B9	43	1.3e-05	310000	–
B10	39	1.1e-05	280000	–
B11	69	2.1e-05	310000	–
B12	139	3.2e-05	230000	–
B13	103	1.4e-05	140000	–
B14	97	1.7e-05	170000	–
B15	117	2.2e-05	190000	–
B16	54	1.8e-05	330000	–
B17	70	2.1e-05	300000	–
B18	59	1.1e-05	180000	–
B19	277	4.7e-05	170000	–
B20	116	2.9e-05	260000	–
B21	60	1.1e-05	190000	–
B22	–	–	–	Kd (A06): < 34 pM; koff (A06): < 1e-05 s⁻¹; Kd (B01): < 32 pM; koff (B01): < 1e-05 s⁻¹; Kd (B05): < 68 pM; koff (B05): < 1e-05 s⁻¹; Kd (G05): < 63 pM; koff (G05): < 1e-05 s⁻¹
